Here are results for 69 sequences from the domain aggregation screens of Martell et al. (2025).

The nature of this data set: soluble fraction after stress (log2 fold change); higher = more stays soluble; pooled small domains, quantitative proteomics. To be noted: stress: 50 degC. The essentials:
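Custom libraries of small protein domains were pooled and measured in a high-throughput format, with quantitative proteomics as the read-out. Each library was stressed at 50°C. The value is the log2 fold change in the amount of each protein that stays soluble after stress, used as a measure of aggregation propensity; higher values mean more of the protein stays soluble.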
With “HMSQPYFELAAADMEALRNALSTIREIESVVLSGKIFHVEVREDLDPGTMNKLAFERGITLTHLVKKKN”, the “soluble fraction (log2)” value is -0.0763. The result for “HMSQRINLNSASIEDMQSLDISNEKIDSIIDYRNRYGNIHNIYELLKIPGITIGDIHSIRNAVTVEIPH” reads -0.112; that for “HMSQSLSGWAAKDLEVKSGADASYRTVGRLPKGSKVSGKIINGYLHIEFDGSMRYVPVSGISKTE”, -0.134; that for “HMSQSYHLADRGQSLGTLDYQAVLVGLATGRLSPDTLSWQEGEAGWVALRQRPEFASGVSAVASL”, 0.0116. The result for “HMSRAHTELEEKLLTMLEENDMTLPMRVISNIASRIEGIIIPEEKILEVLKKSYDRYREHQMD” reads 0.0257; that for “HMSRARSRQTSMLEAVAGLGPARRRALLKQFGGLQGVLRAGIEDLSRAPGIGPALAQAIFEHLHPGA”, -0.466; that for “HMSREQARRFYFDTWAKHRASQPLTDLEKIALTVMLLHPEYHSLLDKPDHYVDKDYSPEAGQTNPFLHM”, -1.2.

With “HMSRIDRKGLTSQIVNHLSKNPGKNFTLKQFFRNLKLNTHPLKMLAVDVLNKLLDTNFITRNEDGEFFLKA”, the “soluble fraction (log2)” value was determined as 0.337. The result for “HMSRLMIVTPDGRIMDDVPEFGEVRTTTDVNGRVLVLDRNNVVIGFEMTPREYRREFGRNPF” reads -0.643; that for “HMSRQAPIGHRIRGRRKDIGMTQNALAKAAGISPSYLNLIEHNRRSIGGGLLMRIAAILDIHPHTL”, -2.23; that for “HMSRTLLVYVTGAVRQPGVYELPEGSRFFDAVKAAGDVLPYAVMEDINMAEPLSDGMKIHIPLDPEQ”, -0.125. The result for “HMSRVFSPSELEIRHAQDVFQALEEAKRQGKGAVSLNGKMIDAPIVARAKLVLEAAAAIYGED” reads -0.362; that for “HMSRVHHGFNISIARNRKGLKQAALADMLGISQQRLSQLENQRVVKDEILEKVSEATGVSVEDLKTIE”, -0.253; that for “HMSRVSVDGEEVNFEGEIPDDPSRIYELLMGALSEQSRVVVKFFVDGKDALLDEGFPSRYQMIEAESV”, -0.285. The result for “HMSRYAFEGNVVRLNQKDFDSWKALFTNIDLVSELTRLDIEFTHDKPKNWFSTASAKLNYQNKNAY” reads -2.27. “HMSRYLLPYAFARTQQVLLEEKSGELTLWMHSGSNLGGISEVTRKYAVQHVTHEPMDALLNRISSAYAN”: the “soluble fraction (log2)” value is -3.41. Then “HMSSAVKRALAELPENWRMIVYYRVVEGLSYAEIAKVLDIPDGSVMSGLHRGKKMLRGLLLEYAQQEGYD”, with -1.72. The result for “HMSSDDEAFKRELVGLIPHLRAFARTLTGDPTAADDLAQDAMMKAWDARASYQMGTNMKAWTFMILRNQFY” reads -2.22; that for “HMSSDKVWSFEASGKQLQASYVAFENETVYLRASEDGSLLQFPLTDFGMKDQLVVLELYELSAKINRSN”, -0.49; that for “HMSSDLSNVVKIIDTLKHKKGALLPILHQIQREIGYIPLKTIDTIAKKLQQTPAEIHGVISFYHQFRTS”, 0.0942. The result for “HMSSEASALRGWLQTSQYQGSVTLFANALNVPLKTVEDWVYGRSKPSLQHWSQLYEATGLPEYQQ” reads -0.18. In the case of “HMSSFRDISGTVYVKASAANLRSEPNTSSLIVDTLYYGASLQRISTNDIWTKVKTGNGQIGFMDNSLFQT”, the “soluble fraction (log2)” value was -2.23. Then “HMSSGSLLTEREIEILAEMAKGLTNKAIGEKLFISVATVKTHILNIYRKLEVSSRVTAVNKAKQMRL”, with -1.93. The result for “HMSSGTAYATDAVNVRSGPGTSYTVLGYLSRGEKVTITGTVSNGWTQIQLPGNRLGYVSSAYLSASYPS” reads -0.259; that for “HMSSHNIALDQDVVVTQLKGKVYLVAADGSQKQLAEGDILPKDAVLITPEGASFKGGNQTFTLS”, 0.17; that for “HMSSIFTRIIAGEIPSYKVAEDENYYAFLDINPLTKGHTLVVPKMEVDYIFDLDDKTLAGMMLFAKKG”, -0.0969.

Take “HMSSKIKYSEFITMLDKGEVESVVLKSDTLTITLKHGTGVAAQTKTTTLMEDLSELTKRLEKAGIKDFDK”: the “soluble fraction (log2)” value worked out at 0.0396. Then “HMSSLDTLTARETQILAEMAQGKNNAAIAAAVSVSERAVEKHTNSIFAKLGLSEEKDVNRRVMAVLLFLGR”, with -3.28. On to “HMSSLEQVYPNPVSSILKLNSFIKNYKILNATGHEVLKGSGNTINVGKLPSGSYFLITSENYSIKFIK”, for which the “soluble fraction (log2)” value is -1.24. As to “HMSSLSGVRRTLLDSLGMPPDASDEELADRREELRGSLDTAPQARRKWIEQQLARIDAITALDASG”, the “soluble fraction (log2)” value was -0.035.

As to “HMSSPEAAEVQRLLKDGQHVQALKIIDESLARNPKDPQMRFRRGVALSMLDRKNEALAVFQKLVED”, the “soluble fraction (log2)” value is -0.043. The result for “HMSSPRAIYSAIQKAVGEDMILYREDVQIILDKLDADLLVDDILEKMELDGTLVRQRDGTWLLL” reads -0.658; that for “HMSSQVFLGQKNSIAKYDLNENKPIWTKEIKGTPLILSTWKDMLLIQIQTWVSYTHMLVKQENGQTVWE”, 0.318; that for “HMSSRLEIEITSKIDDLSHTWRAVGAKQPKGNIKSSLLPSGVKVGETFRVEADFLLDGIEIVSVLPP”, -1.44. For the sequence “HMSSSLDQLTVREREILAQVSRGLSNKAIARELGISHDTVKLHVRHILSKLGFSSRVEAAVFAIEHRIG”, the “soluble fraction (log2)” value is -1.72.

“HMSSSMDAIAEIIRSIPRGDHLTAPEVYELAKQRGLKLSLSTVYRTLNKLKVVGDVITVSGDRGLRYESV”: the “soluble fraction (log2)” value is -0.181.

On to “HMSSTPEPPQAVLDLVNLREQARAGKDWTQSDAFRQQIAALGWTVKDTKDGPVVSLSPTTTE”, for which the “soluble fraction (log2)” value stood at 0.0968.

With “HMSSTSTMTVAEATIGRKVKHDKFGEGTIITVADVNGDKKLTIAFNQQGVKMLMLSMAKLEL”, the “soluble fraction (log2)” value was -1.03.

For the sequence “HMSSVEVWINGKSSGLTSDNRAQILQQLPAESIERIEVIDNPSAKFSAEGSAGIINIVLKKD”, the “soluble fraction (log2)” value is 0.157.

On to “HMSSVRDNGDLELVPGDRIRHDDYGEGRVTAVTGVGSKRIAHAVFDSVGERKLLIKLSPIEKI”, for which the “soluble fraction (log2)” value is -0.0293. The result for “HMSSWMTKDGKIKPISKWAGVPMTSQQQADYAAGKVVELTNIPDKQGQLNTVYLKFNPEKQRPTTSLNDPR” reads 0.134; that for “HMSSYETVTLNGQRYFKYKVKSGEGLYAISRMFSTPIAEIIRHNPSSNAGLKNGQELLIPVN”, 0.00287.

Regarding “HMSSYMQMQLERLESLLQKNDLTDSDKYDIRQLVEDLDKVPESVSPNLVGAYMTIKNRYASVLKTVL”, the “soluble fraction (log2)” value amounted to 0.501. The result for “HMSTANISIEQAKEIALNHANLTSNQVIFSRTELDYDNGIQKYEVEFYYNNREYSYEINANTGDILGYEQ” reads -0.148; that for “HMSTANIVVPDVKGKTFEEAKKAIEAEGLTAKAEGDESGVVQKTSPSYGVSVESGSEVTLTLVKSDD”, -0.0409; that for “HMSTDNINYKNILIASLLIHAAKIDENYTENEKNIIKKALIELDEIDSKKADEIMILAEKKE”, -0.221. For “HMSTGYEMVREVANQGSFSKAANSLGVSGPAVSKQVKSLEERLGLVLFHRTTRAVSLTQAGRQLVDVLN”, the “soluble fraction (log2)” value turned out to be 0.0396. With “HMSTIKEKIIQYLDFKGISKYDFYQKTGVSNGVLSQKSGMSEDNIMRFLSYYDDINTDWLFYGKGEMIKT”, the “soluble fraction (log2)” value is -1.13. Then “HMSTKLLEVNIFDDSKWVNKTIMDSDIPEDILIVMIKRGDEVIVPKGSTIINKGDILVLSANNFDNLLN”, with -1.63. The result for “HMSTMTEQEAFGLWERINDFIARTGNEPNRNSNDAHEVRMAEALNFIRIKVAEQRNSQSNSEAQNN” reads -0.0168; that for “HMSTNDIFISGDKLVLKNTTGQMDVFDMAGRKVLSSTNNVSEMNVSSLPKGVYVVSASIGGSKMKAKVYK”, 0.527. The result for “HMSTQGRRIEILRHLTQTKKKADVNFVELGRTFGTSDTTIRKDLDWLIKNEYWENHGEWKPTQAGLNMI” reads 0.0347; that for “HMSTRKAFVNGDGVRLRSGPGTNHSIRASLTKGQTVFVTGTKDGWASVSVQGGASGWVSADLLKYE”, 0.232. For “HMSTRYVRTPAGQAEIQARVFKLSRPVRNLLLVINDSRSIDDWLVQVHGITADDVAMLRAEGLIAEVS”, the “soluble fraction (log2)” value was -2.4. The result for “HMSTSEQVYTTDKVNVRREADTSSEKLGSLEKGTAISRTGTEGEWSVVNYGGVTGYIKTEFLTTEQPQ” reads 0.132. For the sequence “HMSTSFQVQVSVLDLRIRKEPTVKGQEVGKISKGIHTITETRSADGYTWGKLESGQGWIALEFTTKLD”, the “soluble fraction (log2)” value was -0.194. Regarding “HMSTSLIEFTIDRNNSIANKMIMDANIPEDILVVMIKRNGDVFVPNGSTKILPGDILVLSGNKLKY”, the “soluble fraction (log2)” value was -0.534.

Take “HMSTTDGIERFLASGAVKGIGRTMAARIVEHFGSRTLTVMESEPERLTEVAGIGRKKAESIAASYAELS”: the “soluble fraction (log2)” value was -0.156. Then “HMSTTYAPYLLGETEQEAIRMARNAGLDPQVVRQSDKSEAGTVILQSHDFGFAMKRGAVILITVSSGPLQ”, with -1.44; and “HMSTVTEVHYIAFKNGRIVDIKAALTGSAVTATSIKEQPKIENYNYTTSEVRDGILYHTYAPVA”, with -1.32.

For “HMSVADNALSRQAIESRIALFIQNEDPNHPRSDADIQKELAQAGVVISRRAITKYRNHLHIPSASLRRR”, the “soluble fraction (log2)” value is -1.03. Then “HMSVAPISYSQFESYLEQGKVASVAVGQDTIAGRFTAPVDGKSQFVTTIVNPQILDRIDKSGVEITGV”, with 0.176; and “HMSVAVKAPLQGTVMKVNVKPGDTVTKGAPVAVIEALKMENDVPAPQDGVVASVDVKSGDSVKTDQVLLTL”, with 0.182. Then “HMSVDAMDEANERKMAKTFNMIVLGGLLKIRPIVSIESVIKALRKTLPERHHHLIPMNEEAIHIGMDII”, with 0.0597; and “HMSVDDEQLLKIIDDIFQQNPQAVTDAKTDSNAIHFLIGQVMKETKGHADHAISKEIIEKKLS”, with 0.00481; and “HMSVDEVEALYLKIAEDRLEGKLPDKVSESDLMRRYGLTKAQLGAILQRIVHEGWIERTPGHGWRFLPIL”, with -0.259.

In the case of “HMSVFMIIVLKQHAPQEFVDMLMSSIKAKGVQIDVSKGARKTILGLVGNTSVIDREQIAGYEYVDKVIRV”, the “soluble fraction (log2)” value is -0.85. The result for “HMSVFTDIYHQADHETKLMLIHEIKIVGDEKEFRLLKSIIDSTSNDLSKEANDALNAIKIRLALSK” reads -2.49; that for “HMSVFTPLTRSELETFLAPYELGRLLDFQGIAAGSENTNYFISLEKGEYVLTLVERGPVAEMPFFIELLD”, -0.982.
